Measurements from publication PMC4014126 (2014).

Biological target: NF-κB activator 1 (Act1) (UniProt Q8N7N6)
Assay: co-immunoprecipitation (anti-Myc IP, Western blot, ImageJ densitometry)
Details: IL-17RA-deficient MEFs reconstituted by retroviral infection; treated with IL-17 for 10 min; parent: 100

Chain of Myc-tagged mouse IL-17RA (Q60943 32-864, stated change not applied): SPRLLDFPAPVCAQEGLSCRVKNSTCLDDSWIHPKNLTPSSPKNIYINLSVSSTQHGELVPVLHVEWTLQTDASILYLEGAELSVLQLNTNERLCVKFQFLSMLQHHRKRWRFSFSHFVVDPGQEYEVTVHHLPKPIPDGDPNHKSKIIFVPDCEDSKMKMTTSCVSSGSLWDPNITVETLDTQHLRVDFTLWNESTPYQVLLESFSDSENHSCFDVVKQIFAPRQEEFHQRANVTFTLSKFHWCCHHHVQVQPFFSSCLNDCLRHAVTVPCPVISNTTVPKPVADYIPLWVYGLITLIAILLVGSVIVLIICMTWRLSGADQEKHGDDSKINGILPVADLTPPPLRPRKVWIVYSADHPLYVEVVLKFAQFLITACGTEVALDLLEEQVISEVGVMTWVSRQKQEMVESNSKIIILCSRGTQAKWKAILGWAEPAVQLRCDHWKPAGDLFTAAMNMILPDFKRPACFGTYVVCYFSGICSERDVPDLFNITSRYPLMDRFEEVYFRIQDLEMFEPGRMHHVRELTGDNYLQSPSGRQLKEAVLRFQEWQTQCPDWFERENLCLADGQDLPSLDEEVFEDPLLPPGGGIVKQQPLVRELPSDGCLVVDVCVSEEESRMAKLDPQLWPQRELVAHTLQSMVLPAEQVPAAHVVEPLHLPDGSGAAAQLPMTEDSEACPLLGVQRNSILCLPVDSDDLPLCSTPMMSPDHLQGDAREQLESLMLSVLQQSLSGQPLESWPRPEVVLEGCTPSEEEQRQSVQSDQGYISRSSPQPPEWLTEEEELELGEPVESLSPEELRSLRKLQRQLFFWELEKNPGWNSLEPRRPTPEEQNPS
Chain of NF-κB activator 1 (Act1) (Q8N7N6 whole entry): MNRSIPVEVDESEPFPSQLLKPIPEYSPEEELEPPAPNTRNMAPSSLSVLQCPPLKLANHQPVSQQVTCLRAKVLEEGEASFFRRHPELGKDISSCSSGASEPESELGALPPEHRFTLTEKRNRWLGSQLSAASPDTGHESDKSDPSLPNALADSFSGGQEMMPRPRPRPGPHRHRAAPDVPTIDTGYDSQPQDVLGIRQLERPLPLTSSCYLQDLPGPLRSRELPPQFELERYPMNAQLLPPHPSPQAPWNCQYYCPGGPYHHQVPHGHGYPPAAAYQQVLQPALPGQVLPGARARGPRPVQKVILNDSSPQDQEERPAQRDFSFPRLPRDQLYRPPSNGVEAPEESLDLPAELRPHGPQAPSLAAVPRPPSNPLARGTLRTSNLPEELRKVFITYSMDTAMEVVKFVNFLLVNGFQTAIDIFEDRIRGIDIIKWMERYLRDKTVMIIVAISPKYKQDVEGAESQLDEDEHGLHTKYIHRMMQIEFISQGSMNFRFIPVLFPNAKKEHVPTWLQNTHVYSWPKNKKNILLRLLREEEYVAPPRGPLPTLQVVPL

percent of parent: 31
Substance: Myc-tagged mouse IL-17RA (from UniProt Q60943) T483A; N488A; M489A
